This passage reports Kd, koff and kon results from patent US20240392002A1 (EXELIXIS, published 2024).

Assay [1] addresses T1, extracellular domain of human ROR1 (human, UniProt Q01973 30-406).
T1 construct: bought protein; biotinylated in the bivalent assay format; also called Acro Cat. No. RO1-H522y
Briefly: BLI, monovalent format. As for the experimental part:
(§1) More specifically, monovalent binding affinity analysis was performed using the Octet^QK 384 (ForteBio) using Fc biosensors. Unlabeled B-body™ is first bound to the Fc biosensor at a concentration to yield approximately 1 nm response (typically 10 to 50 nM protein). The biosensors are then equilibrated in 10× Kinetic Buffer (ForteBio) to establish a baseline. The untagged monomer of each antigen is contacted with the antibody-coated sensors at concentrations ranging from 50 nm to 0.75 nM. The association response and dissociation were monitored and recorded. The resulting Kₒₙ and Koff was fit using the Octet analysis software.
(§2) Next, the binding of the antibody to ROR1 and ROR2 was assessed using the monovalent and bivalent BLI binding assessments as described in Example 24.
A general note: In BLI a coated tip is dipped into the sample, and binding shifts an interference pattern.

Assay [2] concerns the target T2, extracellular domain of human ROR2 (human, UniProt Q01974 34-403).
T2 construct: bought protein; biotinylated in the bivalent assay format; also called Acro Cat. No. RO2-H52E5
Description: BLI, monovalent format. As for the experimental part: as §1, §2

Assay [3] concerns the target T3, cynomolgus CD3 delta and epsilon heterodimer (cynomolgus, UniProt Q95LI5 22-117; Q95LI8 22-105).
T3 construct: untagged monomer of the antigen in solution
Briefly: BLI, monovalent format, B-body on Fc biosensor. The procedure: as §1

The target of assay [4] is T1, extracellular domain of human ROR1. Briefly: BLI, bivalent format, biotinylated antigen on streptavidin biosensor. As for the experimental part:
(§3) Bivalent binding analysis was performed using the Octet^QK 384 (ForteBio) using streptavidin biosensors. Biotinylated antigen was first bound to the streptavidin biosensor at a concentration to yield approximately 1 nm response (typically 10 to 50 nM biotinylated protein). The biosensors were then equilibrated in 10× Kinetic Buffer (ForteBio) to establish a baseline. The 1×2 B-body™ was contacted with the antigen-coated sensors at concentrations ranging from 50 nm to 0.75 nM. The association response and dissociation were monitored and recorded. The resulting Kₒₙ and Koff was fit using the Octet analysis software.
as §2

For assay [5], the target named is T2, extracellular domain of human ROR2. Described as above. As for the experimental part: as §3, §2
Assay [6] deals with T3, cynomolgus CD3 delta and epsilon …. Briefly: BLI (Octet QK384), monovalent format: B-body captured on Fc biosensor, untagged antigen as analyte. The procedure:
as §1

For assay [7], the target named is T1, extracellular domain of human ROR1. The assay is described as above. As for the experimental part: as §1
(§4) Monovalent binding analysis was performed as described above and the antibody was captured with an Fc sensor and contacted with the indicated antigen for the association phase followed by a dissociation phase in buffer only.
as §2

Assay [8] has as its target T2, extracellular domain of human ROR2. Described as above. As for the experimental part:
as §1, §4, §2

Assay [9] concerns the target T1, extracellular domain of human ROR1. Description: BLI (Octet QK384), bivalent format: biotinylated antigen on streptavidin biosensor, 1x2 B-body as analyte. The procedure:
as §3, §2

Assay [10] addresses T2, extracellular domain of human ROR2. Described as above. The procedure: as §3, §2

As usually defined, the koff is the first-order rate constant of dissociation. One may read the kon as the second-order rate constant of association. A high value points to faster complex formation.

Where only a bound is given, the exact number is not on record here.

T3 sequence (Q95LI5 22-117, stated change not applied, chain 1 of 2): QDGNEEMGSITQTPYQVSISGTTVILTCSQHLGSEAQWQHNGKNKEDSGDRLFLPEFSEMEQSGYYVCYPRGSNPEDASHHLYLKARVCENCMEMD
T3 sequence (Q95LI8 22-105, stated change not applied, chain 2 of 2): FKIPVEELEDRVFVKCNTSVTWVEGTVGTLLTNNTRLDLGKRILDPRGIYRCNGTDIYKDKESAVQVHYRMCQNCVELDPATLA
T2 sequence (Q01974 34-403 limits assumed): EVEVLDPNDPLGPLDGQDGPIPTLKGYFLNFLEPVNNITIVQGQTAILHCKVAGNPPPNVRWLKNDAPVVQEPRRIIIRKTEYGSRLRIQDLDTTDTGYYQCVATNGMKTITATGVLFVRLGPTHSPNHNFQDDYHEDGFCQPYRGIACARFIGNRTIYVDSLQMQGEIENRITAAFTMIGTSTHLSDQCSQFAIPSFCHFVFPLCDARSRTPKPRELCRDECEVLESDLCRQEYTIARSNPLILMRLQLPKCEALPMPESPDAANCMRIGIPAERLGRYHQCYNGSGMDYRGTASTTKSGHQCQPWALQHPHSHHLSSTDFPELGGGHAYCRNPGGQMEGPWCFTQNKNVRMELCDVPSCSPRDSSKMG
T1 sequence (Q01973 30-406 limits assumed): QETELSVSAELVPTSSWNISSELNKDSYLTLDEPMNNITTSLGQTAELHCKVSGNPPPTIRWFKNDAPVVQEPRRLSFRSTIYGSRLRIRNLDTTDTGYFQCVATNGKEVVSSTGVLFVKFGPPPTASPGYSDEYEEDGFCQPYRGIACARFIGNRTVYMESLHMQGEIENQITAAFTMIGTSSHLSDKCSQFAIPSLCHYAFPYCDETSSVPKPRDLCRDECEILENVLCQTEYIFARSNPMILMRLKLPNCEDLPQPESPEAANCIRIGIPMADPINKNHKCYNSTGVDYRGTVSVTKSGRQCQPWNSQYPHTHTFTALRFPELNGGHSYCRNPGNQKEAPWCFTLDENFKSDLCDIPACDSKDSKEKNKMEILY

B1: I2-A10 D54E Y55Q 1×2 B-body™ (ROR1/ROR2xCD3) (bispecific antibody)
chain 1: DIQMTQSPSSLSASVGDRVTITCRASQSVSSAVAWYQQKPGKAPKLLIYSASSLQSGVPSRFSGSRSGTDFTLTISSLQPEDFATYYCQQYYYYPGTFGQGTKVEIKRTPREPQVYTLPPSRDELTKNQVSLKCLVKGFYPSDIAVEWESNGQPENNYKTTPPVLDSDGSFFLYSKLTVDKSRWQQGNVFSCSVMHEALHNHYTQKSLSLSKSCDKTHTCPPCPAPEAAGGPSVFLFPPKPKDTLMISRTPEVTCVVVDVSHEDPEVKFNWYVDGVEVHNAKTKPREEQYNSTYRVVSVLTVLHQDWLNGKEYKCKVSNKALKAPIEKTISKAKGQPREPQVCTLPPSREEMTKNQVSLSCAVKGFYPSDIAVEWESNGQPENNYKTTPPVLDSDGSFFLVSKLTVDKSRWQQGNVFSCSVMHEALHNHYTQKSLSLSPGK
chain 2: EVQLVESGGGLVQPGGSLRLSCAASGFTFSSYFIHWVRQAPGKGLEWVAGIYPSEGYTSYADSVKGRFTISADTSKNTAYLQMNSLRAEDTAVYYCARYYVSGMDYWGQGTLVTVSSASPREPQVYTDPPSRDELTKNQVSLTCLVKGFYPSDIAVEWESNGQPENNYKTTPPVLDSDGSFFLYSKLTVDKSRWQQGNVFSCSVMHEALHNHYTQKSLSLSGEC
chain 3: not shown
chain 4: EVQLVESGGGLVQPGGSLRLSCAASGFTFNTYAMNWVRQAPGKGLEWVARIRSKYNNYATYYADSVKGRFSISRDDSKNTAYLQMNSLRAEDTAVYYCVRHGNFGNSYVSWFAYWGQGTLVTVSSASTKGPSVFPLAPSSKSTSGGTAALGCLVKDYFPEPVTVSWNSGALTSGVHTFPAVLQSSGLYSLSSVVTVPSSSLGTQTYICNVNHKPSNTKVDKKVEPPKSC
notes: two ROR sites, one SP34-89 CD3 site; chain 5 is the same as chain 2; also called I2A-10 D54E Y55Q BC1 1×2
Regarding B1, the Kd in [1] is 460 pM; in [2], under 1 pM; in [3], 3500 pM; in assay [4] it was 21 pM; in assay [5], 3 pM; in [10], 3.3 pM. Further, the koff is 0.00063 s⁻¹ in [6], 0.00023 s⁻¹ in [7], under 1e-07 s⁻¹ in [8] and 1.1e-05 s⁻¹ in assay [9]. Moreover, the association rate constant (kon) in assay [6] turned out to be 180000 M⁻¹ s⁻¹; in assay [7], 480000 M⁻¹ s⁻¹; in [8], 140000 M⁻¹ s⁻¹; in [9], 510000 M⁻¹ s⁻¹; in assay [10], 1.4e+06 M⁻¹ s⁻¹.
